Results: patent publication US20250147051A1, “METHOD FOR DETECTING A TAU PROTEIN IN A SALIVA SAMPLE” (GTINVENT LIMITED, priority 2022, published 2025)

Legend:
dGA = dGA (Homo sapiens, UniProt P10636); experiment: Biacore X100 SPR binding kinetics of anti-tau scAbs (scAb captured via HuCk), analyte dGA; conditions: lead scAbs; for ka: Table 24; for dissociation rate constant (kd): Table 24, dissociation rate
Protocol: Surface plasmon resonance (SPR) is widely regarded as the gold standard for real time measurement of protein-protein interactions such as antibody binding. All SPR experiments were carried out using a Biacore X100 machine and HBS EP+ running buffer (GE Healthcare). A ‘capture’ method was followed for affinity measurements, where an anti-human constant kappa chain (HuCk) antibody was conjugated to the surface of a CM5 sensor chip using an amine coupling kit and scAb molecules were immobilised via their HuCk domain. Amine coupling is a very common approach for immobilising the ligand to the chip surface. The chip surface has a dextran matrix derivatised with carboxyl groups, which after activation with N-hydroxysuccinimide (NHS) and 1-ethyl-3-(3-dimethylaminopropyl) carbodiimide (EDC), form reactive succinimide esters which allows the covalent capturing of the ligand via any available primary amine groups (e.g. Lysine) on the ligand (in this case anti-HuCk antibody). The capture antibody was diluted 1/100 in 10 mM Sodium acetate buffer pH 5.0 and passed over the activated chip surface for a period of at least 420 s. Final ligand immobilisation levels over 12,000 RU were deemed to be satisfactory.
Following immobilisation, the level of each scAb to be captured was identified using the standard SPR equation with a theoretical RMax of 100 RU. Analyte MW refers to the molecular weight of hT40 or dGA/dGAE molecules, while ligand MW refers to the molecular weight of the scAbs tested. RLis the desired capture level and S refers to the stoichiometric ratio:
The scAb to be tested was added only to flow cell 2 so that flow cell 1 could act as a control to subtract any interaction with the analyte and the chip surface. Both single and multi-cycle runs were utilised using wizards developed in the Biacore X100 control software which are both accepted methods of kinetic analysis (Karlsson, R., et al. Analyzing a kinetic titration series using affinity biosensors (2006) Analytical Biochemistry 349:136-47). The multi-cycle protocol was as follows-Three start-up cycles composed of an initial capture, to the desired level, of the scAb to be tested was performed followed by a 30 s injection of glycine buffer pH 2.0 after each cycle to regenerate the chip surface. The regeneration step removed any captured scAb whilst leaving the capture antibody intact and able to repeat the capture for the next cycle. Following three start-up cycles increasing concentrations (0.15625 nM-100 nM) of the target to be tested were added to the chip surface after the desired scAb capture. The target was added for a 120 s association period and 420 s dissociation period followed by another regeneration, 30 s injection of glycine buffer pH 2.0 in between each cycle.
The single cycle kinetics protocol was similar and utilised the same level of scAb capture. Three start-up cycles were used followed by 5 increasing concentrations of the analyte (6.25 nM-100 nM) for an association period of 120 s followed by a dissociation period of 420 s for each concentration. In single cycle kinetics the regeneration step was performed only after the final analyte concentration was added. Binding responses were analysed in Biacore X100 evaluation software and data fitted to a 1:1 binding model to obtain kinetic and affinity characterisation.

core region tau = experiment: S1D12 immunotherapy 6-week repeat-dose mouse study, plasma tau by CA4-S1G2 core-core Simoa assay; format: in vivo; conditions: 30 mg/kg i.p. once per week for six weeks, CA4-S1G2 Simoa
Protocol: A total of 12 wildtype, 12 Line 1 and 12 Line 66 female mice were used in this study—Line 1 and Line 66 are transgenic mouse models of tauopathy (Melis et al., 2015). Animals were 2 months old at the beginning of the study. Mice of each genotype were injected intraperitoneally (i.p.) with either vehicle or S1D12 mAb (30 mg/kg), once per week, for six consecutive weeks.
Seven days post final dose, cardiac puncture blood sampling was performed. mice were anaesthetised using an overdose of sodium pentobarbital (i.p.) and blood was collected via cardiac puncture through a Plastipak syringe pre-rinsed with heparinised saline (10 U/mL) and transferred into a plastic vial containing lithium heparin anticoagulant. Blood samples were centrifuged to obtain plasma at 2,000×g for 5 min at 6° C.
In order to monitor the ‘treatment effect’ of S1D12 mAb, plasma tau of vehicle control and antibody treated L66^+/+ mice were assessed via a core-core homebrew Simoa® assay to investigate changes in core tau pools in these mice.

dGAE aggregates = target: T1, dGAE aggregates (Homo sapiens, UniProt P10636); experiment: Sandwich ELISA LoD for SDS Triton X-100 treated dGAE aggregates; format: binding; conditions: label = detection scAb
T1 construct: host or cells: aggregated in house: 100 μM dGAE with DTT, 700 rpm, 37 °C, 24 h
Protocol: For aggregation, 1000 μL 100 μM dGAE+10 μL 10 mM DTT was added to a ‘LoBind’ microfuge tubes and agitated at 700 RPM/37° C. for 24 hours. Resulting sample centrifuged at 17,000×g/4° C. for 60 min and supernatant discarded to remove left over monomer. Pellet resuspended in half the original volume for future experiments and hereafter referred to as ‘aggregates’. 1 μl of aggregates was added to 1 ml of PBS and SDS was added to a final concentration of 1% (w/v). This was left to incubate on lab bench for 1 h with gentle agitation every 15 minutes. In order to neutralise the SDS effect on ELISA, Triton X-100 added to a final concentration of 3% (v/v) and mixed gently by pipetting to prevent any bubble formation. 200 μl added of this mix was to the first well of an ELISA plate coated with 1 μg/ml S1D12 mAb and blocked with 2% MPBS. Similarly aggregates treated with only SDS or Triton X-100, untreated aggregates, dGAE monomers treated with only SDS or SDS+Titon X-100 were also added to designated wells as controls. All samples were then double diluted across the plate in final volumes of 100 μl. The final column was left with no protein to act as a blank. This was allowed to stand at room temperature for 1 hour followed by the addition of detection scAb-S1G2 at 10 μg/ml. Anti-HuCk HRP labelled secondary antibody was added as described previously and ELISA data generated was represented using the graph below. In addition, limits of detection (LoD) of various core binding antibody pairing for SDS Triton X-100 treated dGAE aggregates were calculated using the above describe ELISA method and substituting capture mAbs and detection scAbs as shown in Table 30.

tau = experiment: Western blot of mouse brain homogenates (WT, L66+/+, L1+/+); conditions: 20 μg brain homogenate protein, 5-month-old WT, L1+/+ mice
Protocol: Protein equivalent to 20 μg from each brain extract was separated using 4-20% bis-tris gels and run in 1×MES buffer. […] A clear band is visible in the lanes containing L66^+/+ samples, but no other bands are detectable (WT or L1^+/+). […] Once again, a band having relative mobility of 65 kDa is visible in the L66 sample with no other reactive bands present.
This band most likely corresponds to endogenous mouse tau which is of a similar size. In the L66^+/+ samples, a second band running at approximately 68 kDa is also detected. The presence of numerous other bands indicates proteolytic truncation of tau within brain homogenates.

dGA, sequence (P10636 614-707): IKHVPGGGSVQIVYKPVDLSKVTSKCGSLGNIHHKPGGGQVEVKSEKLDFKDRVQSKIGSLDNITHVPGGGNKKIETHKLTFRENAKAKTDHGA
T1 sequence (P10636 614-708): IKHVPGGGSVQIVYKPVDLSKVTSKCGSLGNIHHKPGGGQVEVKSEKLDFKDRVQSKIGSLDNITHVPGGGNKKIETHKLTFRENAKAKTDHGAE

Molecule | ka (dGA) [M⁻¹ s⁻¹] | dissociation rate constant (kd) (dGA) [s⁻¹] | LoD, S1D12 mAb capture, +SDS Triton dGAE agg. (dGAE aggregates) [ng/mL] | LoD, direct immobilisation of dGAE aggregates, +SDS Triton dGAE agg. (dGAE aggregates) [ng/mL] | further results
NS2A1: anti-tau clone, SEQ ID NO: 220 (protein, NS2A1 amino acid sequence) scFv: QVQLQESGPSLVKPSQTLSLTCTVSGFSLSTNSVGWVRQAPGKAPEWVAGIDTDGEEGFNPVLKSRLSITRDTSKSQVSLSLSNVTSEDTAVYYCGRSYRTDGLAYGYVQAIDYWGPGLLVTISSEGKSSGASGESKVDDQSVLTQPSSVSGSPGQTVSITCSGSYIGSSGVGWFQQLPGSGLRTIIVASDGRPSGVPDGFSMSKSGNTATLTISSLQAEDEADYFCGSSDRTQYTGLFGSGTRLTVLG | 188000 | 0.00102 |  |  | 
S1D12 mAb: S1D12 reformatted as mAb; heavy chain SEQ ID NO: 445, light chain SEQ ID NO: 446 (antibody, S1D12 mAB Heavy Chain; S1D12 mAB Light Chain) heavy: QVQLQESGPSLVKPSQTLSLTCTVSGFSLNNNAVGWVRQAPGKVPESLVGCSSDGTCYYNSALKSRLDITRDTSKNQISLSLSSVTTDDAAVYYCTRGHYSIYGYDYLGTIDYWGPGLLVTVSSAKTTAPSVYPLAPVCGDTTGSSVTLGCLVKGYFPEPVTLTWNSGSLSSGVHTFPAVLQSDLYTLSSSVTVTSSTWPSQSITCNVAHPASSTKVDKKIEPRGPTIKPCPPCKCPAPNLLGGPSVFIFPPKIKDVLMISLSPIVTCVVVDVSEDDPDVQISWFVNNVEVHTAQTQTHREDYNSTLRVVSALPIQHQDWMSGKEFKCKVNNKDLPAPIERTISKPKGSVRAPQVYVLPPPEEEMTKKQVTLTCMVTDFMPEDIYVEWTNNGKTELNYKNTEPVLDSDGSYFMYSKLRVEKKNWVERNSYSCSVVHEGLHNHHTTKSFSRTPGK light: QAVLTQPSSVSGSLGQRVSITCSGSSSNVGGGNSVGWYQHLPGSGLKTIIYDTNSRPSGVPDRFSGSRSGNTATLTINSLQAEDEGDYYCVTGDSTTHDDLVGSGTRLTVLGGQPKSSPSVTLFPPSSEELETNKATLVCTITDFYPGVVTVDWKVDGTPVTQGMETTQPSKQSNNKYMASSYLTLTARAWERHSSYSCQVTHEGHTVEKSLSRADCS |  |  |  |  | plasma tau, wildtype mice with treatment (core region tau): 3.57 (0.22) ng/ml; plasma tau, L1 mice with S1D12 treatment (core region tau; above upper limit of detection): > 100 ng/mL
S1E12: anti-tau clone, SEQ ID NO: 218 (protein, S1E12 amino acid sequence) scFv: QVQLQESGPSLVKPSQTLSLTCTVSGFSLGSNSVGWVRQAPGKAPEWVAGIDTDGEEGYNPALNSRLSITRDTSKSQVSLSLSSVTSEDTAVYYCGRSYRADGLAYGYVQAIDYWGPGLLVTVSSEGKSSGASGESKVDDRVVRTQPSSVSGSLGQRVSITCSGSFIGISSVGWFQQLPGSGLRTIIVASDGRPSGVPDRFSMSKSGNTATLTISSLQAEDEADYFCGSSDRTQYTGVFGSGTRLTVLG | 2.99e+06 | 0.001627 |  |  | 
CA9: anti-tau clone, SEQ ID NO: 371 (protein, CA9 amino acid sequence) scFv: QVQLQESGPSLVKPSQTLSLTCTVSGFSLTSNSVGWVRQAPGKAPEWVAGIDTDGEEGYNPALNSRLSITRDTSKSQVSLSLSSVTSEDTAVYYCGRSYRSDGLAYGYVQAIDYWGPGLLVTVSSEGKSSGASGESKVDDQAVLTQPASVSGSLGQRVSITCSGSFIGISSVGWFQQLPGSGLRTIIVASDGRPSGVPDRFSMSKSGNTATLTISSLQAEDEADYFCGSSDRTQYTGVFGSGTRLTVLG |  |  | 4 | 40 | 
CA12: anti-tau clone, SEQ ID NO: 372 (protein, CA12 amino acid sequence) scFv: QVQLQGSGPSLVKPSQTLSLTCTVSGFSFDSYYVGWVRQAPGKALEWLGNIYSTGRAFYNPALKSRLSITRDTSKSQVSLSVSSVTIEDTALYYCVRGSYYHGGGNGMVDFFDYWSPGLLVTVSSEGKSSGASGESKVDDQVVRTQPSSVSGSLGQRVSITCSGSSSNVGYGNYVGWFQQVPGSAPKLLIYAATSRASGVPDRFSGSRSGNTATLTIDSLQAEDEADYYCSSYQRGNTGVFGSGTRLTVLG |  |  | 2 | 16 | 
CC7: anti-tau clone, SEQ ID NO: 365 (protein, CC7 amino acid sequence) scFv: QVQLQESGPSLVKPSQTLSLTCTVSGFSLTSNAVIWVRQAPGKAPEWVALIDVDGDAAYDPALKSRLSITRDTSKSQVSLSLRSVTTEDTAVYYCARDYGSWGYVSDIDYWGPGLLVTVSSEGKSSGASGESKVDDRVVRTQPSSVSGSLGQRVSITCSGSYITGSSVGWFQQVPGSGLKTVIYDNNDRPSGVPDRFSGSKSGDTATLTISSLQAEDEADYYCASYDTSNIGLFGSGTRLTVLG |  |  |  |  | Western blot reactivity (tau): specificity for human tau
